Measured values from article PMC12005789, “Geniposidic Acid Targeting FXR “S332 and H447” Mediated Conformational Change to Upregulate CYPs and miR‐19a‐3p to Ameliorate Drug‐Induced Liver Injury” (Advanced Science, 2025).
Ends that are not written are not given here.

T1: Farnesoid X receptor (FXR) (Homo sapiens, UniProt Q96RI1)
T1 construct: gene NR1H4; human FXR LBD (residues 248–486), N-terminal 8×His-Tag
T1 sequence (Q96RI1 248-486): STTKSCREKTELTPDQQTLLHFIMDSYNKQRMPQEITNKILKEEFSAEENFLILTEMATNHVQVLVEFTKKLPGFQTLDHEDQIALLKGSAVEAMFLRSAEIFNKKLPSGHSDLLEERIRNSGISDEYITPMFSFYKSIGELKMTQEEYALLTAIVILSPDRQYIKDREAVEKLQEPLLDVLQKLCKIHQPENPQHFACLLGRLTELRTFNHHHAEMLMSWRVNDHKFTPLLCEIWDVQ

T2: human FXR LBD wild-type recombinant protein (human)
T2 chain: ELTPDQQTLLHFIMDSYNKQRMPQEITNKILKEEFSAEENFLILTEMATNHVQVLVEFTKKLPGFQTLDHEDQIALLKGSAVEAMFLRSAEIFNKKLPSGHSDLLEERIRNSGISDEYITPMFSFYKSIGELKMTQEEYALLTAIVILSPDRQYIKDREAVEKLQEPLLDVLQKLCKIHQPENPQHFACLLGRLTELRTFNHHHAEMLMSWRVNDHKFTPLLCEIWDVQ

T3: human FXR LBD H447A recombinant protein (human)
T3 chain: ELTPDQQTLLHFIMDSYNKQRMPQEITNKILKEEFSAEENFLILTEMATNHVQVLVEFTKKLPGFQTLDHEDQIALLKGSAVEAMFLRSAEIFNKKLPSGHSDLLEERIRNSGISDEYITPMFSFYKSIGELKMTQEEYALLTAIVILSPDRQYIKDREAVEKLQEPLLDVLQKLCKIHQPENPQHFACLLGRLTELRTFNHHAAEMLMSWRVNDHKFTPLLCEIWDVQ


Assays:
[1] = molecular target: T1, Farnesoid X receptor (FXR); assay: SPR (Biacore T200, CM5 chip with FXR LBD WT); supported by DSF, CETSA and AlphaScreen; type: binding
[2] = molecular target: T2, human FXR LBD wild-type recombinant …; assay: SPR; with GPA
[3] = molecular target: T3, human FXR LBD H447A recombinant protein; assay: SPR; with GPA
[4] = molecular target: T2, human FXR LBD wild-type recombinant …; assay: SPR; with GW4064

Row | Molecule | Kd [1] | Kd [2] | Kd [3] | Kd [4]
1 | O=C(O)C1=CO[C@@H](O[C@@H]2O[C@H](CO)[C@@H](O)[C@H](O)[C@H]2O)[C@@H]2C(CO)=CC[C@H]12 [GPA, Geniposidic acid] | 390 nM |  |  | 
2 | QEPVSPKKKENALLRYLLDKDDTKD (also: biotinylated (position not given here)) [SRC2-3 biotinylated cofactor peptide] |  | 533 nM | 355 µM | 185 nM
